Experimental data taken from article PMC12412787.

Molecular target: T1, Pyl1p (Yarrowia lipolytica, UniProt Q6CBN1 1-600)
T1 sequence: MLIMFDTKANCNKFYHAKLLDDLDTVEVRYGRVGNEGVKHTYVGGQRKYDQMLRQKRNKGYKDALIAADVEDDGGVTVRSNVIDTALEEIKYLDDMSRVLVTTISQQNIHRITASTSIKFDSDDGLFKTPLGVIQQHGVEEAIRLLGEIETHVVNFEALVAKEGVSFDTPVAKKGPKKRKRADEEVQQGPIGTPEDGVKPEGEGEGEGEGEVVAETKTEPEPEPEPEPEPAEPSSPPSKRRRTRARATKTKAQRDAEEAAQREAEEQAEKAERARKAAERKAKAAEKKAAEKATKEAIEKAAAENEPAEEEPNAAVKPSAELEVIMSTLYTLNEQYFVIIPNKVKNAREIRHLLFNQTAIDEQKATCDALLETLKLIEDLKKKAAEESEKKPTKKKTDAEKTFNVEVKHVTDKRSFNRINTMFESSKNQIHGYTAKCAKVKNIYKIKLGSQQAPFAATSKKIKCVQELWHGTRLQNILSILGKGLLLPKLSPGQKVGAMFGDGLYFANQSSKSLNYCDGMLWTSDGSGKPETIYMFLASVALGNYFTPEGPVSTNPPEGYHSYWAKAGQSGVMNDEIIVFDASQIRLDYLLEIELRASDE
Assay: EMSA

B1: dsTEL probe (YlipTEL_G/YlipTEL_C) (dsDNA)
DNA 1: TTAGTCAGGGTTAGTCAGGG
DNA 2: CCCTGACTAACCCTGACTAA
  binding result: binds
